From publication PMC11597096, “Unite and Conquer: Association of Two G-Quadruplex Aptamers Provides Antiproliferative and Antimigration Activity for Cells from High-Grade Glioma Patients”

Biological target: PARP1 (Homo sapiens, UniProt P09874 1-1014)
Test: BLI; no competitor; kon 6.6 ± 0.34 (10^5 M-1 s-1), koff 1.28 ± 0.04 (printed as 10^2; 10^-2 s-1 implied); BLI: 1x PBS pH 7.4, 25 °C, SAX biosensors, biotinylated oligo loaded at 2 uM, PARP1 2.5-162 nM. Pull-down: 25 mM Tris-HCl pH 7.4, 150 mM NaCl, 1 mM EDTA, 1% NP-40, 5% glycerol, 0.1 mM DTT, room temperature
Details: protein: recombinant; label: 5'-biotin; bi-modular G4 with parallel chain stacking

Chain of PARP1 (P09874 whole entry): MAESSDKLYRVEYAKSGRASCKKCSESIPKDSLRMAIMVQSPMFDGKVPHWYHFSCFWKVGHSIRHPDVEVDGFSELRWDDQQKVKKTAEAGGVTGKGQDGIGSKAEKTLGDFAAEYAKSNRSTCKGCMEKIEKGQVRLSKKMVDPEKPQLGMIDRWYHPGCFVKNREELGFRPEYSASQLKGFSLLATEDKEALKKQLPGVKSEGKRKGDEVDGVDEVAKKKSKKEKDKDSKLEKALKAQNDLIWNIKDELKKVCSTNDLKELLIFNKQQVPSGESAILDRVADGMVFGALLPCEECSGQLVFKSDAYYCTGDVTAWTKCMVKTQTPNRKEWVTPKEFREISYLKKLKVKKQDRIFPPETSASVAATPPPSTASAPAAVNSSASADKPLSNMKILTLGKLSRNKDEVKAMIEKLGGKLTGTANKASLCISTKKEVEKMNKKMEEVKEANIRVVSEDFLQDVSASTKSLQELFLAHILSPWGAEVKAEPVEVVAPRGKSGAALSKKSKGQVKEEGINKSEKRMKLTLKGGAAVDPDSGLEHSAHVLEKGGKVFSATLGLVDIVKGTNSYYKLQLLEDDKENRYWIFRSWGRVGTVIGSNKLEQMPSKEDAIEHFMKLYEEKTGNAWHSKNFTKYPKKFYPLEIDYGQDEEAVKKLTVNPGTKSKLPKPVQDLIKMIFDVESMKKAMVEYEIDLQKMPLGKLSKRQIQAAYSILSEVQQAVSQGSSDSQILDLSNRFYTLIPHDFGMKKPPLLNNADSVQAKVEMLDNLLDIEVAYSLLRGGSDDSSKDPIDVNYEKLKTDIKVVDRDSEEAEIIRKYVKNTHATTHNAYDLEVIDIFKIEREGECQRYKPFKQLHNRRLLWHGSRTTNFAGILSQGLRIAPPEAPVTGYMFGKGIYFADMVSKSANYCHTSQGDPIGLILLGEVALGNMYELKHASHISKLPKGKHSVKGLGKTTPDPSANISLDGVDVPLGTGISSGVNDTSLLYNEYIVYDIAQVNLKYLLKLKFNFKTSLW

Binder: GGGTGGGTGGGTGGGTTTGGGTGGGTGGGTGGG (structured_DNA) [bi-(AID-1-T)]
- Kd: 19.4 ± 0.7 nM
